Data: US8535684

Target: Nedd4 on the surface of virus-infected MDCK cells (canine (MDCK cells))
Test: cell-based or functional assay

Q: For Human Nedd4 antibody Ab101AP, which inhibition of viral replication (ADCC mediated, in vitro) is on record?
A: Its inhibition of viral replication (ADCC mediated, in vitro) is 80 % inhibition.

Q: Human Nedd4 antibody Ab27979 was tested. Which inhibition of viral replication (ADCC mediated, in vitro) did it give?
A: The inhibition of viral replication (ADCC mediated, in vitro) was 80 % inhibition.
